The results in this text go back to publication PMC4835898 (Frontiers in Microbiology, 2016).

Assay [1] concerns the target T1, Bacillus subtilis DnaK Y601F, 6xHis-tagged (Bacillus subtilis 168, UniProt P17820 1-611, Y601F, to some extent phosphorylated during heterologous expression in E. coli (on residues other than 601); residues not told for this preparation).
T1 construct: the mutant is described as a version of the same protein in the same vector; source: E. coli (NEB Express Iq), purified (Ni-NTA, desalted on PD-10); not shown: 6xHis, N-terminal, kept
Briefly: pull-down; 100 ug 6xHis-DnaK (WT or Y601F) and 100 ug Strep-tagged DnaJ or GrpE incubated with 1 ug anti-6xHis antibody (HIS.H8) in 450 uL IP Lysis/Wash Buffer (Pierce Classic IP Kit); captured on Protein A/G agarose; eluates blotted with anti-Strep tag and anti-His tag. Particulars: both partners purified.

For assay [2], the target named is T2, Bacillus subtilis DnaK wild type, 6xHis-tagged (Bacillus subtilis 168, UniProt P17820 1-611, to some extent phosphorylated (phosphotyrosine signal) during heterologous expression in E. coli; residues and extent not told for this preparation).
T2 construct: probably the whole ORF, since Y601 lies near the C-terminus; also called DnaK WT; WT DnaK; source: E. coli (NEB Express Iq), purified (Ni-NTA, desalted on PD-10); not shown: 6xHis, N-terminal, kept
The description is as above. Particulars: both partners purified.

B1: Bacillus subtilis DnaJ, Strep-tagged (natural protein)
chain: not shown
notes: Made in a pQE-30 vector in which the His-tag was replaced by a strep-tag (Jers et al., 2010)
For B1, the binding result in assay [1] and in assay [2] was “binds” each time.

B2: Bacillus subtilis GrpE, Strep-tagged (natural protein, Bacillus subtilis 168, UniProt P15874 1-187, looked up)
chain: MSEEKQTVEQNETEEQEIIEEQAAADEQQEETNESELLQNQINELQGLLEEKENKLLRVQADFENYKRRSRLEMEASQKYRSQNIVTDLLPALDSFERALQVEADNEQTKSLLQGMEMVHRQLVEALKKEGVEAIEAVGQEFDPNLHQAVMQAEDENYGSNIVVEEMQKGYKLKDRVIRPSMVKVNQ
notes: as for B1
With B2, the binding result in assay [1] and in assay [2] was “binds” throughout.
